From patent US20170037084A1 (UNIVERSITY OF ROCHESTER, published 2017)
Bridges are numbered along the chain shown (N, C = ends). Where no end group is shown, it is not given here. [ ]: non-standard residue; d: D form. The star is where a group is joined. SP8 = 3-amino-N-(3-(aminooxy)propyl)-4-(mercaptomethyl)benzamide, macrocycle-forming linker reagent; mAcF = meta-acetyl-L-phenylalanine, its ketone forms an oxime with the linker; pAcF = para-acetyl-L-phenylalanine, its ketone forms an oxime with the linker; FITC = O=C1OC2(c3ccc(O)cc3Oc3cc(O)ccc32)c2ccc(NC(=S)*)cc21; Trp(6-Cl) = N[C@@H](Cc1c[nH]c2cc(Cl)ccc12)C(=O)O; Phe(4-Ac) = CC(=O)c1ccc(C[C@H](N)C(=O)O)cc1; SP4 = not defined here; SP6 = not defined here; SP9 = not defined here; βAla = NCCC(=O)O

T1: HDMX-YFP fusion protein (p53-binding domain of human HDMX, residues 1-109, C-terminally fused to Yellow … (human, UniProt O15151 1-109))
T1 construct: range 1-109; Expressed in E. coli BL21(DE3) from pET22-HDMX-YFP-His; also called HMDX; HDM4; not shown: Yellow Fluorescent Protein (YFP); C-terminal His tag
T1 sequence (looked up): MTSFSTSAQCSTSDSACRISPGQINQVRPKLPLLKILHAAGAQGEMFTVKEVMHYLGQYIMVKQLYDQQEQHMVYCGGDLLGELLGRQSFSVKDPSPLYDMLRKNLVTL


molecular target: T2, HDM2-YFP fusion protein (p53-binding domain of human HDM2, residues 1-109, C-terminally fused to Yellow … (human, UniProt Q00987 1-109)); test: SPR inhibition assay: inhibitor added to soluble HDM2-YFP, binding to immobilized biotin-SGSG-p53(15-29) is inhibited
T2 construct: range 1-109; Expressed in E. coli BL21(DE3) from pET22-HDM2-YFP-His; also called HMD2; HDM2-YFP-His; not shown: Yellow Fluorescent Protein (YFP); C-terminal His tag
T2 sequence (Q00987 1-109): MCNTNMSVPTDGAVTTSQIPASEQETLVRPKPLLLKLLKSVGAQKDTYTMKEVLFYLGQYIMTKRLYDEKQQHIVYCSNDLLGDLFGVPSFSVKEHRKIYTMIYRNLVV
Protocol: (§1) The surface plasmon resonance (SPR)-based inhibition assays were performed using a BIAcore T100 instrument. […] Running buffer and sample buffer contained 10 mM HEPES buffer, pH 7.4 with 150 mM NaCl, 3 mM EDTA and 0.05% v/v Tween 20. […] With increasing concentrations of the inhibitor, binding of HDM2 (or HDMX) to the surface is inhibited, leading to a decrease in biosensor response. HDM2/HDMX plus inhibitor samples were injected at a rate of 30 uL/min over a 2 minute interval by a 2 minute dissociation period and a 10-second regeneration step using 10 mM HCl. Specific binding curves for each concentration of inhibitor were obtained by subtracting the response in the reference surface from the response in the p53-coated surface.

| Binder | IC50 [nM] |
| --- | --- |
| Ac-GTSFAYYWNLLA-NH2 (also called acyclic counterpart of P3 and P4) [P2] | 1510 |
| Ac-[mAcF]SFAEY[Trp(6-Cl)]ALLA (linker 1-C via SP9; reading uncertain; also: linker thiol capped with iodoacetamide, also called Ac-(mAcF)SFAEY(6ClW)ALLA, SP9-linked macrocycle) [P18] | 400 |
| Ac-[pAcF]SFAEY[Trp(6-Cl)]ALLA (linker 1-C via SP9; reading uncertain; also: linker thiol capped with iodoacetamide, also called Ac-(pAcF)SFAEY(6ClW)ALLA, SP9-linked macrocycle) [P17] | 305 |
| Ac-[pAcF]SFAEY[Trp(6-Cl)]ALLA (linker 1-C via SP4; reading uncertain; also: linker thiol capped with iodoacetamide, also called Ac-(pAcF)SFAEY(6ClW)ALLA, SP4-linked macrocycle) [P19] | > 50000 |
| GTSFA[Phe(4-Ac)]YWNLLA (linker 6-C via SP6; reading uncertain; also: linker thiol capped with iodoacetamide) [p53 macrocyclic peptidomimetic P3 (i/i+6(CO)-linked, SP6-based linker)] | 870 |
| Ac-[Phe(4-Ac)]SFAEY[Trp(6-Cl)]ALLA-NH2 (SMILES CC(=O)N[C@@H](Cc1ccc(C(C)=O)cc1)C(=O)N[C@@H](CO)C(=O)N[C@@H](Cc1ccccc1)C(=O)N[C@@H](C)C(=O)N[C@@H](CCC(=O)O)C(=O)N[C@@H](Cc1ccc(O)cc1)C(=O)N[C@@H](Cc1c[nH]c2cc(Cl)ccc12)C(=O)N[C@@H](C)C(=O)N[C@@H](CC(C)C)C(=O)N[C@@H](CC(C)C)C(=O)N[C@@H](C)C(N)=O, also called Ac-(pAcF)SFAEY(6ClW)ALLA-NH2) [P11] | 30 |
| Ac-[pAcF]SFAEYWNLLA (linker 1-C via SP8; also: linker thiol capped with iodoacetamide) [P13] | 135 |
| Ac-[mAcF]SFAEYWNLLA (linker 1-C via SP8; also: linker thiol capped with iodoacetamide) [P14] | 255 |
| Ac-G[pAcF]SFAEYWNLLA (linker 2-C via SP8; also: linker thiol capped with iodoacetamide) [P12] | 145 |
| GTSFA[pAcF]YWNLLA (linker 6-C via SP8; also: linker thiol capped with iodoacetamide) [p53 macrocyclic peptidomimetic P4 (i/i+6(CO)-linked, SP8-based linker)] | 1500 |
| Ac-[mAcF]SFAEY[Trp(6-Cl)]ALLA (linker 1-C via SP8; also: linker thiol capped with iodoacetamide, also called Ac-(mAcF)SFAEY(6ClW)ALLA, SP8-linked macrocycle) [P16] | 105 |

molecular target: T1, HDMX-YFP fusion protein (p53-binding …); test: SPR inhibition assay, competitor immobilised biotin-p53(15-29); the sentence does not say which homolog
Protocol: as §1

| Binder | IC50 [nM] |
| --- | --- |
| GTSFA[Phe(4-Ac)]YWNLLA (linker 6-C via SP4; reading uncertain; also: linker thiol capped with iodoacetamide, also called SP4-based macrocycle P5) | ~10000 |

molecular target: T1, HDMX-YFP fusion protein (p53-binding …); test: SPR inhibition assay: inhibitor added to soluble HDMX-YFP, binding to immobilized biotin-SGSG-p53(15-29) is inhibited
Protocol: as §1

| Binder | IC50 [nM] |
| --- | --- |
| Ac-GTSFAYYWNLLA-NH2 (also called acyclic counterpart of P3 and P4) [P2] | 7500 |
| GTSFA[Phe(4-Ac)]YWNLLA (linker 6-C via SP6; reading uncertain; also: linker thiol capped with iodoacetamide) [p53 macrocyclic peptidomimetic P3 (i/i+6(CO)-linked, SP6-based linker)] | 4100 |
| GTSFA[pAcF]YWNLLA (linker 6-C via SP8; also: linker thiol capped with iodoacetamide) [p53 macrocyclic peptidomimetic P4 (i/i+6(CO)-linked, SP8-based linker)] | 3500 |

molecular target: T1, HDMX-YFP fusion protein (p53-binding …); test: SPR inhibition assay, competitor immobilised biotin-p53(15-29)
Protocol: as §1

| Binder | IC50 [nM] |
| --- | --- |
| G[Phe(4-Ac)]SFAEYWNLLA (linker 2-C via SP6; reading uncertain; also: linker thiol capped with iodoacetamide) [p53 macrocyclic peptidomimetic P7 (i/i+10(CO)-linked, SP6-based linker)] | 910 |
| G[Phe(4-Ac)]SFAEYWNLLA (bridge 2-C; not fully specified (bridges); also: linker thiol capped with iodoacetamide) [p53 macrocyclic peptidomimetic P8 (i/i+10(CO)-linked, SP8-based linker)] | 340 |

molecular target: T2, HDM2-YFP fusion protein (p53-binding …); test: fluorescence polarization, fluorescein-labeled compound (25-200 nM) titrated with HDM2 (10 nM to 2 µM)
Protocol: HDM2 binding studies. […] In the assay, 25-200 nM of the fluorescein-labeled compound and HDM2 concentrations varying from 10 nM to 2 μM were tested. The experiments were performed at room temperature in black 96-well plates with a final volume of 75 μL in PBS buffer with addition of 1% DMSO. Fluorescence was detected at excitation/emission of 470/520 nm and change in fluorescence polarization was plotted against the varying protein concentration.

| Binder | Kd [nM] |
| --- | --- |
| {FITC-βAla}-G[pAcF]SFAEYWNLLA (linker 2-C via SP8; also: linker thiol capped with iodoacetamide, also called fluorescein-conjugated P8) [FITC-β-Ala-P8 (fluorescein-labeled derivative of macrocycle P8)] | 63 |
